Measurements from patent US12404345B2, “Humanized antibodies against iRHOM2” (SCIRHOM GMBH, priority 2021, dated 2025).

How the values were obtained:
RH-30 cells = assay: FACS binding to RH-30 cells endogenously negative for iRhom2; parameters: species or system human; conditions: antibody at 3 μg/ml
Procedure: In this study, binding specificity analyses of the humanized antibody 42-B-02 as a representative example of the antibodies of the invention in cell lines endogenously expressing iRhom2 were performed. The studies were conducted on RPMI-8226 cells, a human B lymphocytic cell line endogenously expressing iRhom2 but being endogenously negative for iRhom1, on THP-1 cells, a human monocytic cell line endogenously expressing both iRhom2 and iRhom1 and on RH-30 cells, a human […] cell line endogenously negative for iRhom2 but endogenously expressing iRhom1.
In brief, human RPMI-8226 cells (Deutsche Sammlung von Mikroorganismen und Zellkulturen, Germany), THP-1 cells (American Type Culture Collection, USA) and RH-30 cells (Deutsche Sammlung von Mikroorganismen und Zellkulturen, Germany) were harvested with 10 mM EDTA in PBS, washed and resuspended in FACS buffer (PBS, 3% FBS, 0.05% sodium azide), and seeded in Nunc U-bottom 96-well plates (Thermo Fisher Scientific, USA) at approximately 2×10^5 cells per well. In order to pellet cells and remove supernatants, the plates were centrifuged at 1,500 rpm and 4° C. for 3 minutes. […] Finally, cells were resuspended in 150 μl per well of FACS buffer and analyzed using a BD Accuri™ C6 Plus flow cytometer (Becton Dickinson, Germany).

[1] = system: LPS-induced release of endogenous TNFα; assay: Mouse model for septic shock, LPS-induced TNFα release in serum of genetically humanized mice; assay type: in vivo; conditions: antibody 250 μg/kg in 200 μL PBS injected 1h before LPS 50 μg per mouse; serum 2h after LPS
Procedure: In the following study, ELISA-based TNFα release assays were performed to verify the inhibitory effects of the antibodies of the invention on LPS-induced release of endogenous TNFα in a mouse model for septic shock. The experiment was conducted using genetically humanized mice, in which parts of the mouse genomic iRhom2 DNA (exons which encode for the antibody binding site) were replaced by the corresponding human genomic DNA sequences. All animal experiments were approved by the Institutional Animal Care and Use Committee of the Hospital for Special Surgery and Weill Cornell Medicine.
On day 1, one group of mice was injected with the antibodies of the invention at a concentration of 250 μg/kg in 200 μL PBS. A second group was injected with the same volume of PBS only (200 μl PBS per mouse). 1h later all mice were subjected to an injection of LPS (Sigma, USA) at a concentration of 50 μg/200 μL per mouse (250 ng/μL). All mice were closely monitored and euthanized after 2h by CO2 inhalation. […]
For measuring TNFα release, Mouse TNF-α Uncoated ELISA Kit (Invitrogen, USA) was used. […] The color reaction was stopped by the addition of 100 μl 2N sulfuric acid (Sigma, USA) and the ELISA plate was read at the wavelength of 450 nm using a Multiskan Titertek Plate reader (VWR, USA).

B1: 42-B-02: humanized antibody binding human iRhom2; HCVD SEQ ID NO 33, LCVD SEQ ID NO 37 (antibody, V domains shown)
VH: QVTLRESGPALVKPTQTLTLTCTFSGFSLSTFGRGVGWIRQPPGKALEWLAHIWWDDEKYYNSALKSRLTISKDTSKNQVVLTITNMDPVDTATYYCARIQNYGSNYWYFDVWGQGTLVTVSS
VL: AIQLTQSPSSLSASVGDRVTITCRASSRISYMFWYQQKPGKAPKVLIYDTSNLASGVPSRFSGSGSGTDYTLTISSLQPEDFATYYCQQWNSYPLTFGQGTKLEIK
modifications: antibody sequences
For B1, the “binding to RH-30 cells (endogenously negative for iRhom2, expressing iRhom1)” value (RH-30 cells) was “no binding” and the “LPS-induced release of TNFα in serum of genetically humanized mice, percent release (buffer treated control animals set to 100%)” value [1] was 17.3%.
